Experimental data from IntAct's records for PubMed 35512704.

B1: Mothers against decapentaplegic homolog 4 (Homo sapiens), Q13485 (parent)
chain: MDNMSITNTPTSNDACLSIVHSLMCHRQGGESETFAKRAIESLVKKLKEKKDELDSLITAITTNGAHPSKCVTIQRTLDGRLQVAGRKGFPHVIYARLWRWPDLHKNELKHVKYCQYAFDLKCDSVCVNPYHYERVVSPGIDLSGLTLQSNAPSSMMVKDEYVHDFEGQPSLSTEGHSIQTIQHPPSNRASTETYSTPALLAPSESNATSTANFPNIPVASTSQPASILGGSHSEGLLQIASGPQPGQQQNGFTGQPATYHHNSTTTWTGSRTAPYTPNLPHHQNGHLQHHPPMPPHPGHYWPVHNELAFQPPISNHPAPEYWCSIAYFEMDVQVGETFKVPSSCPIVTVDGYVDPSGGDRFCLGQLSNVHRTEAIERARLHIGKGVQLECKGEGDVWVRCLSDHAVFVQSYYLDREAGRAPGDAVHKIYPSAYIKVFDLRQCHRQMQQQAATAQAAAAAQAAAVAGNIPGPGSVGGIAPAISLSAAAGIGVDDLRRLCILRMSFVKGWGPDYPRQSIKETPCWIEIHLHRALQLLDEVLHTMPIADPQPLD
partner: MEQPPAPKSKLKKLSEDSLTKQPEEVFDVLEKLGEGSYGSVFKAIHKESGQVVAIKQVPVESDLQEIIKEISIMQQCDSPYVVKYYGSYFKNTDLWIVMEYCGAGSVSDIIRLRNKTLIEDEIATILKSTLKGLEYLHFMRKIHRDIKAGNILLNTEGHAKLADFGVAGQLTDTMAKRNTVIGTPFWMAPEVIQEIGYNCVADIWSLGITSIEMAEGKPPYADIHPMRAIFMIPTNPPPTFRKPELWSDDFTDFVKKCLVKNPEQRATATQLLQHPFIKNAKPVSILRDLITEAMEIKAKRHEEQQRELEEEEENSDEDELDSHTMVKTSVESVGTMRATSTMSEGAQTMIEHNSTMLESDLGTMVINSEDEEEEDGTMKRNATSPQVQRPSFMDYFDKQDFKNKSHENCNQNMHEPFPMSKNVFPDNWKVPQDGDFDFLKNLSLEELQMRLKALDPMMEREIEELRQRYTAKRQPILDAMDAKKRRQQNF
B2: Mothers against decapentaplegic homolog 4 (Homo sapiens), Q13485 (parent)
chain: B1 chain
partner: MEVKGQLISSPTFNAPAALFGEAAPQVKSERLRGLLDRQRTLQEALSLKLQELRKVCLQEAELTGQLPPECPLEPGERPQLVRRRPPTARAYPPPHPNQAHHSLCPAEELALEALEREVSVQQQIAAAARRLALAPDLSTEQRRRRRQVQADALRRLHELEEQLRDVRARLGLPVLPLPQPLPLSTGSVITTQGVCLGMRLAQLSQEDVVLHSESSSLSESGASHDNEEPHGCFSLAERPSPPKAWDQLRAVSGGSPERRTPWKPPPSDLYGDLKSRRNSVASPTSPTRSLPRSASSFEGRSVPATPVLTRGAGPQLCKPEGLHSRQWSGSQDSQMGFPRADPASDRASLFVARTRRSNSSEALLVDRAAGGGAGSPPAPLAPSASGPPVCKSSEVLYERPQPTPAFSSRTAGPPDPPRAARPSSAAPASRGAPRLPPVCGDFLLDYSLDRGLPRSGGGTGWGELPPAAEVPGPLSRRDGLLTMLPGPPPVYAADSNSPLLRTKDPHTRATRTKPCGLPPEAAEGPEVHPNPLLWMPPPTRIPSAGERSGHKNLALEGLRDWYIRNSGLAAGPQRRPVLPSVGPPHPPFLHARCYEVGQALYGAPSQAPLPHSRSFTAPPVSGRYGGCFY
B3: Mothers against decapentaplegic homolog 4 (Homo sapiens), Q13485 (parent)
chain: B1 chain
partner: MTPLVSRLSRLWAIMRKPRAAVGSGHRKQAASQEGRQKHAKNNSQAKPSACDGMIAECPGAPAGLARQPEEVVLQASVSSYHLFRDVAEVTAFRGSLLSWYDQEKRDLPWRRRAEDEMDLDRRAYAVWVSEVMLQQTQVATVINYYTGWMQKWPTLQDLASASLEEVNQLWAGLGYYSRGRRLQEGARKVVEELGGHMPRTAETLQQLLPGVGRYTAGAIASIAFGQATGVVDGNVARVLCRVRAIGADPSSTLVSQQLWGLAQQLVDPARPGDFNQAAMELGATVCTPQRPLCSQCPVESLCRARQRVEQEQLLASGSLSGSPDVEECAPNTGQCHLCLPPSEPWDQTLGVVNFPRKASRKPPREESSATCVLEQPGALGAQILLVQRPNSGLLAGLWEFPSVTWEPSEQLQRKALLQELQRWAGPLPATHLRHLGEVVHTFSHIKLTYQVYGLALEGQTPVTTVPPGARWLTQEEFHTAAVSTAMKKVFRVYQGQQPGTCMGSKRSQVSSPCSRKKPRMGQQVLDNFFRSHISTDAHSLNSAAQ
B4: Mothers against decapentaplegic homolog 4 (Homo sapiens), Q13485 (parent)
chain: B1 chain
partner: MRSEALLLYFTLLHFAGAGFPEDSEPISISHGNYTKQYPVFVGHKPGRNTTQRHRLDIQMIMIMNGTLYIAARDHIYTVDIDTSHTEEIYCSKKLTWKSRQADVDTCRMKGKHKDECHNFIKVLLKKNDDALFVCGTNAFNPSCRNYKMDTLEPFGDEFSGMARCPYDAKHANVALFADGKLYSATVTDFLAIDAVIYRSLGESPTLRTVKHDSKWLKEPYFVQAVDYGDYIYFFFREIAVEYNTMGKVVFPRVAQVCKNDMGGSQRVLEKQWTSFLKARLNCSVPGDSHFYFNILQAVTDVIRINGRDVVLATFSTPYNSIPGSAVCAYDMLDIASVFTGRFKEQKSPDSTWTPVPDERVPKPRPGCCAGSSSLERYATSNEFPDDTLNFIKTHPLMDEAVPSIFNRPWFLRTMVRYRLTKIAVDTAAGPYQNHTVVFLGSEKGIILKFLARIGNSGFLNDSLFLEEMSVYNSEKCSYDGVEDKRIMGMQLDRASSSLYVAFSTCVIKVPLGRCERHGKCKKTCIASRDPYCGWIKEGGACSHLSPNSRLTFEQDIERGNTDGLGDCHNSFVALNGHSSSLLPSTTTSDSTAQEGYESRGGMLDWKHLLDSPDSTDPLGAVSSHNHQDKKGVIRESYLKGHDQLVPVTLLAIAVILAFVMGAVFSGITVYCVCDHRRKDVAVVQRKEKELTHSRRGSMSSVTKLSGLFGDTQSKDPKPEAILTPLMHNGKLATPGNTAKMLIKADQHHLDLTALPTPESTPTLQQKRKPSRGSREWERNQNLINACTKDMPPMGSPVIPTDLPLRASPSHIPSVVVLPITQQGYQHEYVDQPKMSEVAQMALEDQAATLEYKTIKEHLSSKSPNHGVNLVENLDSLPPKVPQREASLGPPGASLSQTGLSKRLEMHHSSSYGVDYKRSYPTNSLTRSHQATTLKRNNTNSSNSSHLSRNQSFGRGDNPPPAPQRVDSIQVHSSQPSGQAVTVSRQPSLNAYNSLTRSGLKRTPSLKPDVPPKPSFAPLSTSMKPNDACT
B5: Mothers against decapentaplegic homolog 4 (Homo sapiens), Q13485 (parent)
chain: B1 chain
partner: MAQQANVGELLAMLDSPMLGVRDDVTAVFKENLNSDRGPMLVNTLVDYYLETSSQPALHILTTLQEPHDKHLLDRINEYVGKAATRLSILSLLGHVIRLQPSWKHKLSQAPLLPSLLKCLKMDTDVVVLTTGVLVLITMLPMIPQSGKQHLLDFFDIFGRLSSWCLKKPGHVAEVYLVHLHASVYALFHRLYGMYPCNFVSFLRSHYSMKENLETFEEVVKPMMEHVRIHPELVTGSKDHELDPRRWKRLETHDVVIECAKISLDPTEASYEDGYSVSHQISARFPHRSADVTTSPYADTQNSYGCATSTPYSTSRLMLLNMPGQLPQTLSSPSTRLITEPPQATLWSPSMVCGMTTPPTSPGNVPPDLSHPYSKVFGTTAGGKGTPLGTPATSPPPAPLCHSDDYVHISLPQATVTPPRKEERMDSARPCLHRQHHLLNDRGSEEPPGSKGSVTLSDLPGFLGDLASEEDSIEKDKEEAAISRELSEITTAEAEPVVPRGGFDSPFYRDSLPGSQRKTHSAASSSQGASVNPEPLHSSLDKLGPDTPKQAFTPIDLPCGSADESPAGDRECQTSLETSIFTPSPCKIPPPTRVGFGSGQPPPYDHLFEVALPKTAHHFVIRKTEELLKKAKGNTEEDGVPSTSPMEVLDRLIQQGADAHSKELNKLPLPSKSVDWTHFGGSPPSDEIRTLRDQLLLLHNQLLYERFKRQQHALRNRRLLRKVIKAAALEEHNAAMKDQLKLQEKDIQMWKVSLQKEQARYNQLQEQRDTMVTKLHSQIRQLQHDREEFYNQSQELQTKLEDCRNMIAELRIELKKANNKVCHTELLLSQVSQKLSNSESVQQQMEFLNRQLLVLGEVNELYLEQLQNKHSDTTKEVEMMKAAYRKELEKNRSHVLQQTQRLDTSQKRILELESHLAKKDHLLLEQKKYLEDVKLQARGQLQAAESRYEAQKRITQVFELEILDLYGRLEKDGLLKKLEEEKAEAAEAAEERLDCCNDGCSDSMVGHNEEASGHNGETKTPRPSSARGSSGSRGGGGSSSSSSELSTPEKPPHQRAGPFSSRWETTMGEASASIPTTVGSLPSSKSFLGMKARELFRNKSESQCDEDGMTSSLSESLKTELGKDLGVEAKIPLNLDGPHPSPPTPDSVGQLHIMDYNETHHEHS

Variants of: B1
Conditions: with stk3_human STK3, Q13188

| Variant | effect of a mutation on the interaction |
| --- | --- |
| R361H | with no effect |

Variants of: B2
Conditions: with cc120_human CCDC120, Q96HB5

| Variant | effect of a mutation on the interaction |
| --- | --- |
| R361C | with no effect |

Variants of: B2
Conditions: with cc120_human CCDC120, Q96HB5
Remark: another data set of the same source

| Variant | effect of a mutation on the interaction |
| --- | --- |
| G386D | with no effect |

Variants of: B2
Conditions: with cc120_human CCDC120, Q96HB5
Remark: another data set of the same source

| Variant | effect of a mutation on the interaction |
| --- | --- |
| G386D | increasing interaction strength |

Variants of: B3
Conditions: with mutyh_human MUTYH

| Variant | effect of a mutation on the interaction |
| --- | --- |
| R361C | with no effect |

Variants of: B3
Conditions: with mutyh_human MUTYH
Remark: another data set of the same source

| Variant | effect of a mutation on the interaction |
| --- | --- |
| D351H | with no effect |

Variants of: B3
Conditions: with mutyh_human MUTYH
Remark: another data set of the same source

| Variant | effect of a mutation on the interaction |
| --- | --- |
| G386D | with no effect |

Variants of: B4
Conditions: with sem6a_human SEMA6A

| Variant | effect of a mutation on the interaction |
| --- | --- |
| D351H | with no effect |

Variants of: B4
Conditions: with sem6a_human SEMA6A
Remark: another data set of the same source

| Variant | effect of a mutation on the interaction |
| --- | --- |
| G386D | with no effect |

Variants of: B4
Conditions: with sem6a_human SEMA6A
Remark: another data set of the same source

| Variant | effect of a mutation on the interaction |
| --- | --- |
| R361C | with no effect |

Variants of: B4
Conditions: with sem6a_human SEMA6A
Remark: another data set of the same source

| Variant | effect of a mutation on the interaction |
| --- | --- |
| R361H | with no effect |

Variants of: B5
Conditions: with tsc1_human TSC1, Q92574

| Variant | effect of a mutation on the interaction |
| --- | --- |
| R361C | with no effect |
